B1: Mutant B (other)
Fc chain (hinge-CH2-CH3): DKTHTCPPCPAPELLGGPSVFLFPPKPKDTLMISRTPEVTCVVVDVSHEDPEVKFNWYVDGVEVHNAKTKPREEQYNSTYRVVSVLTVLHQDWLNGKEYKCKVSNKALPAPIEKTISKAKSGNTFRPEVHLLPPPSEELALNELVTLTCLARGFSPKDVLVRWLQGSQELPREKYLTWASRQEPSQGTTTFAVTSILRVAAEDWKKGDTFSCMVGHEALPLAFTQKTIDR
notes: Purified over Ni-NTA (His tag); also called Mutant B Fc domain; MutB
B2: Wild type IgA Fc domain (other)
chain: VPCPVPSTPPTPSPSTPPTPSPSCCHPRLSLHRPALEDLLLGSEANLTCTLTGLRDASGVTFTWTPSSGKSAVQGPPERDLCGCYSVSSVLPGCAEPWNHGKTFTCTAAYPESKTPLTATLSKSGNTFRPEVHLLPPPSEELALNELVTLTCLARGFSPKDVLVRWLQGSQELPREKYLTWASRQEPSQGTTTFAVTSILRVAAEDWKKGDTFSCMVGHEALPLAFTQKTIDR
notes: Template for the alanine scan; also called wild-type glycosylated IgA; IgA CH2 CH3
B3: FcγRIIa-R131-GST (receptor, UniProt P12318 34-217, looked up)
chain: QAAAPPKAVLKLEPPWINVLQEDSVTLTCQGARSPESDSIQWFHNGNLIPTHTQPSYRFKANNNDSGEYTCQTGQTSLSDPVHLTVLSEWLVLQTPHLEFQEGETIMLRCHSWKDKPLVKVTFFQNGKSQKFSRLDPTFSIPQANHSHSGDYHCTGNIGYTLFSSKPVTITVQVPSMGSSSPMG
notes: R131 is an allele name counted on the mature protein; not shown: GST tag

Assay [1] addresses T1, FcαRI-GST (UniProt P24071 22-227, limits assumed).
T1 construct: extracellular domain; Made in HEK293F cells from pMaz-IgH-FcαRI-GST (dimeric expression) and purified on glutathione Sepharose; also called soluble dimeric FcαRI-GST; CD89; not shown: GST tag
Briefly: SPR, antibody amine coupled, dimeric FcαRI-GST flowed, 2:1 bivalent analyte fit.

The target in assay [2] is T1, FcαRI-GST. Briefly: ELISA: Fc domain coated at 4 µg/mL, FcαRI-GST in 1:4 serial dilution, anti-GST HRP, A450. How it is done:
(§1) ELISA plates (Qiagen) were coated with 4 μg/mL of each of the mutant Fc domains in 1×PBS (pH 7.4) overnight at 4° C. The next day the plates were blocked for 2 hours at room temperature with 2% milk in 1×PBS containing 0.05% Tween (PBST) and washed three times in PBST at pH 7.4. To the first well, 66 μL of 20 μg/mL of either FcγRI-GST, FcγRI-GST, FcγRIIa-R131-GST, FcγRIIb-GST, or FcγRIIIa-F158-GST dissolved in PBS with 2% milk (PBSM) was added followed by 1:4 serial dilution. After 1 h of incubation at room temperature, the plates were washed and 50 μL PBSM was added containing 1:5000 goat anti-GST HRP (GE Healthcare) for 1 hour. To develop the plates, the wells were washed 3× with PBST, 50 μL TMB substrate was added per well (Thermo Scientific), 50 μL of 1 M H₂SO₄ was added to neutralize, and the absorbance at 450 nm was recorded.

The target of the next assay is T2, FcγRI-GST (UniProt P12314 16-292, limits assumed).
T2 construct: not shown: GST tag
Briefly: ELISA: Fc domain coated at 4 µg/mL, FcγRI-GST in 1:4 serial dilution, anti-GST HRP, A450. The procedure: as §1

The assay “Wild type IgA Fc domain” has as its target B2. As to the kind of experiment: ELISA: Fc domain coated at 4 µg/mL, FcγRIIa-R131-GST in 1:4 serial dilution, anti-GST HRP, A450. How it is done: as §1

T1 sequence (P24071 22-227 limits assumed): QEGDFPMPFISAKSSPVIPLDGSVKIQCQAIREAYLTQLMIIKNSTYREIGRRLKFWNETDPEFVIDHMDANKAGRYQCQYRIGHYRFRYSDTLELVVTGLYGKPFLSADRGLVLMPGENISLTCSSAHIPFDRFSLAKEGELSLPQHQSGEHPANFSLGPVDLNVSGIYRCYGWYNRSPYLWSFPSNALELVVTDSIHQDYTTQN
T2 sequence (P12314 16-292 limits assumed): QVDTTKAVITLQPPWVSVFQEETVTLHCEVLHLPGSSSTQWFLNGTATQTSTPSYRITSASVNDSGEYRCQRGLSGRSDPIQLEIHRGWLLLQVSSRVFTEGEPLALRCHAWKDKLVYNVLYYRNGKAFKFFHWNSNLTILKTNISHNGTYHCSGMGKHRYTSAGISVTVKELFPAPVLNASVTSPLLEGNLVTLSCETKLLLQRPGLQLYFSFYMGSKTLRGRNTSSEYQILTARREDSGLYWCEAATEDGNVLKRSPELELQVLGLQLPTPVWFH

As for trastuzumab IgA (antibody), in the assay with FcαRI-GST [1], the Kd was 500 nM.
As for B1, in the assay with FcαRI-GST [2], the binding result was “no binding”.
Take B2: the binding result in the assay with FcγRI-GST is on record as “no binding”.
Turning to B3, the binding result in the assay with Wild type IgA Fc domain is reported as “no binding”.

Source of the values: US20150266960A1 (University of Texas, published 2015).
